In article PMC2120674:

Legend:
[1] = molecular target: two chain urokinase-type plasminogen activator (uPA); test: SDS-PAGE of the protease-serpin complex
[2] = molecular target: human urokinase-type plasminogen activator receptor (uPAR) expressed in mouse LB6 clone 19 cells (human) (UniProt Q03405); test: radioligand binding
Sequence of UniProt Q03405 (Q03405 23-305): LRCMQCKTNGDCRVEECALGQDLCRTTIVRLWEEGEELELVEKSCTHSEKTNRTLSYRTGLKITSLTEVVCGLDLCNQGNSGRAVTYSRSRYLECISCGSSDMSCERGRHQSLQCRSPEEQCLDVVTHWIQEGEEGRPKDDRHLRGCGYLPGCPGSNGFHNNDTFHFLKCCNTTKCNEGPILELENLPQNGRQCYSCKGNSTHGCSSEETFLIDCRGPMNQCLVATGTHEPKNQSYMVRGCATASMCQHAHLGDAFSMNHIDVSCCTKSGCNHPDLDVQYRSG

“plasminogen activator inhibitor type-1 (PAI-1), recombinant active (from UniProt P05121 24-402) (natural protein)” was tested, and the percent of uPA converted to the complex form [1] was over 90%.
“uPA-PAI-1 complex (urokinase with plasminogen activator inhibitor type-1) (from UniProt P05121 24-402)” showed a bound radioactivity at 4C (with cycloheximide) [2] of 19.4 fmol/well and a bound radioactivity at 4C (without cycloheximide) [2] of 18.7 fmol/well.
